Data reported in the supplement of paper PMC10567573.

B1: MLL5 (parent)
chain: EQIAERKRKMVSWEASSLGLVTAA
B2: LRRC45 (parent)
chain: DLSAANEKNLLLQNQVDELERKFR

Variants of: B1
Experiment: protein stability index of a GFP-peptide fusion (GPS, HEK-293T) (PSI 1-6); higher = more stable
Conditions: c terminus: a fixed tail appended
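Note: lentivirally expressed fusions sorted by FACS into six bins by GFP to DsRed ratio, PSI derived from sequencing read proportions per bin multiplied by bin number.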

Protein stability index: each site, then its substitutions
T22: N 3.21; Q 3.73; S 2.92; K 2.54; D 3.63; I 1.62; V 3.58; E 3.63; M 2.63; H 2.85; L 2.18; Y 2.57; A 3.33; F 1.83; W 1.79
A23: D 3.98; Q 2.31; P 3.41; R 2.63; N 2.31; C 3.12; E 3.96; S 2.68; W 2.08; Y 2.28; K 3.27; F 1.58; I 3.23; M 3.11; T 2.31
V21: W 2.86
A24: Q 3.39; Y 2.1; C 2.39; K 2.4; S 3.57; F 2.29; E 4.38; N 3.25; H 3.17; V 3.04; D 4.11

Variants of: B2
Experiment: as above
Conditions: c terminus: a fixed tail appended

Protein stability index of substitutions, site by site:
D1: Q 4.21; W 3.75; G 4.55; T 3.83; F 4.09; S 4.25; H 4.42; N 4.4; R 4.41; K 4.19; I 3.93; M 4.23; L 3.93; P 4.17; Y 4.19; A 4.6; C 3.73; V 4.34; E 3.61
A4: T 4.06; F 3.61; L 3.06; Q 3.82; S 4.05; W 3.78; P 4.11; C 3.85; D 4.67; N 3.29; M 3.49; G 3.77; R 4.07; K 4.36; E 4.53; V 3.77; Y 3.91; H 4.01; I 3.81
S3: Y 3.58; I 3.51; C 3.74; G 4.54; T 3.62; H 4.13; K 4.15; F 3.49; V 3.89; D 4.64; M 4.11; E 4.86; N 4.07; Q 4.04; W 3.18; R 4.26; P 4.31; L 3.51; A 4.44
L2: Y 4.85; K 5.06; H 4.61; W 4.27; R 4.86; G 4.78; Q 4.69; A 5.21; P 4.67; F 4.54; M 4.19; D 5.31; C 4.76; I 3.27; E 5.13; T 4.92; V 3.89; N 4.64; S 4.86
E7: L 2.96; A 3.5; K 3.7; H 3.94; M 3.14; N 3.01; G 3.43; I 3.2; C 3.78; D 4.73; F 2.88
A5: H 4.16; Q 3.9; F 3.79; Y 3.87; V 3.95; P 4; C 4.42; L 3.83; R 3.67; I 4.02; E 4.01; W 3.34; D 3.69; K 4.33; S 4.39; M 3.62; N 3.18; G 4.22; T 3.91
N6: P 4.62; R 4.61; I 3.27; S 4.92; T 4.4; V 4.38; L 3.8; M 3.97; W 3.37; F 3.62; Y 3.77; K 4.51; D 5.02; H 4.27; C 4.59; E 4.69; A 5.2; G 4.82; Q 4.73
